Data published in patent US9757471B2, “Protozoan variant-specific surface proteins (VSP) as carriers for oral drug delivery” (priority 2012, dated 2017).
“Also recorded” adds a separate entry of the source.

Key:
[1] = type: physicochemical; settings: in the presence of VSP; no degradation after incubation at pH 2
Method: To assess in vitro the capacity of VSP carriers to protect IL-2 from degradation, the capacity of a VSP carrier (e.g., recombinant VSP1267) to protect human IL-2 from conditions similar to those present in the GIT was evaluated. The capacity of the VSP to protect IL-2 from degradation caused by extreme pHs or by enzymatic proteolysis (e.g., by trypsin and/or pancreatine) was assayed using the methods described in the Examples above.
IL-2 alone or mixed with VSP carrier was incubated at different pHs or with different concentration of proteolytic enzymes such as trypsin. The presence of IL-2 after the pH and proteolyitc enzyme challenges was detected using Coomassie stain of SDS-PAGE gels.

[2] = Serum hGH levels in mice after oral administration of hGH alone or with VSP carrier; type: in vivo; settings: hGH alone, oral 50 to 800 μg, female Balb/c mice
Method: hGH serum levels were tested after oral administration, evaluating different doses and measurement times, to determine the best dose for combination with the VSP carrier VSP1267 (FIG. 11A). As in previous experiments, female Balb/c mice, 7 weeks old, were left without food intake for 2 hours and then received the doses indicated in […] (i.e., 50, 100, 200, 400 and 800 μg of hGH). In a parallel experiment, hGH was administered subcutaneously (FIG. 11A, inset). […] Thus, a direct relationship between absorption and these variables (time and concentration) could not be determined.

trypsin [3] = test: hGH stability to trypsin, without or with VSP carrier (Western blot, silver staining); type: in vitro ADME
Method: (§1) To evaluate in vitro the capacity of a VSP carrier to protect bioactive peptides from degradation, we evaluated the capacity of recombinant VSP1267 to protect human growth hormone (Somatotropin, hGH) (Biosidus, Argentina), an 191 amino acids long protein, from conditions similar to those present in the GIT. Similar to the previous analysis performed with the VSPs alone, the capacity of the VSP to protect hGH from degradation caused by extreme pHs or by enzymatic proteolysis was assayed.
hGH was also treated for 90 min at 37° C. with several concentrations of trypsin (0, 100, 150, 200, and 500 μg/mL). […] This protective effect was observed up to a 150 μg/mL trypsin concentration.

[4] = type: physicochemical; settings: hGH combined with chimeric VSP protein (SEQ ID NO: 589) derived from T. thermophila and G. intestinalis
Source text: (§2) To determine if VSP-like proteins retain the Giardia VSP extracellular domain properties, and therefore can be used as VSP carriers or as components of chimeric VSP proteins, a DNA fragment of a Tetrahymena thermophila VSP-like protein encoding a VSP domain (TTHERM_00826790 hypothetical protein; SEQ ID NO: 590) was modified using stander molecular biology techniques to generate a chimeric VSP. The chimeric VSP protein (SEQ ID NO: 589) comprised the sequences encoding the signal peptide (SEQ ID NO: 591) of Giardia intestinalis VSP1267 and a His6 purification tag fused respectively to the amino terminus and carboxy terminus of the sequence of a VSP domain (SEQ ID NO: 592) located between amino acid positions 977 and 1465 of the VSP-like protein from Tetrahymena (SEQ ID NO: 590).
(§3) The chimeric VSP was cloned into a bacmid for expression in Sf9 insect cells. Once expressed and secreted to the culture supernatant, the chimeric VSP protein was purified on a Nickel column as described in Example 2.
(§4) The chimeric VSP protein was used to verify the stability of hGH to pH and trypsin sensitivity.

trypsin [5] = type: in vitro ADME; settings: hGH combined with chimeric VSP protein (SEQ ID NO: 589) derived from T. thermophila and G. intestinalis
Source text: as §2, §3, §4

[6] = type: physicochemical
Method: as §1
The anti-hGH monoclonal antibody was subsequently used to determine the degree of resistance of hGH to different pHs. hGH was incubated at different pHs (1.6, 2.0, 3.8, 5.0, 5.8, 7.0, 8.0, 9.0, 10.0, and 11.0) for 90 minutes.

trypsin [7] = test: Western blot of VSPs after trophozoite trypsinization; type: in vitro ADME; settings: trophozoites, trypsin 200 μg/mL and 2 mg/mL, 90 min at 37° C., PBS pH 7.4, Western blot
Method: Giardia parasite clones WB-9B10, WB-1267 and GS-H7 (expressing, respectively, the VSP9B10, VSP1267 and VSPH7 VSPs) were resuspended in PBS at pH 7.4 and treated for 90 min at 37° C. with variable concentrations of trypsin (200 μg/mL and 2 mg/mL). Then, the parasites were lysed and equivalent protein amounts were applied to each lane in the SDS-PAGE gels.

[8] = pH resistance assay of VSPs on Giardia trophozoites (immunofluorescence); type: physicochemical; settings: trophozoites in RPMI, pH 1 to pH 10, 90 minutes, immunofluorescence microscopy
Method: To determine whether VSPs are resistant to variable pH and to proteolytic digestion, two different Giardia isolates (clonal trophozoite populations) were treated with trypsin and with variable pH and the effect of those conditions on the VSP expressed by each isolate were monitored using immunofluorescence assays.
For the pH resistance assay. Giardia parasites were resuspended in RPMI cell culture medium at variable pHs, from pH 1 to pH 10. in 1 pH unit increments (only pH 1, 3, 5 and 10 are shown in FIG. 2B). Giardia parasites were kept at the different pHs for 90 minutes, washed, and then incubated with the corresponding monoclonal antibody.

## IL-10: human interleukin-10, anti-inflammatory cytokine
[1]
  resistance to low pH: resistant

## Somatotropin [hGH]
[2]
  oral absorption of hGH (serum levels) compared with subcutaneous: much lower levels than subcutaneously absorption
  variability of oral absorption regarding times and amounts: highly variable
Trypsin [3]; VSP carrier added at 3:1 VSP/hGH (1:3 hGH to VSP) ratio
  protection of hGH from trypsin degradation: able to protect hGH from trypsin degradation; also recorded: protects hGH from trypsin degradation
Trypsin [3]; hGH alone, 90 min at 37° C., trypsin 100 to 500 μg/mL
  hGH degradation by trypsin: rapidly degraded even at the lowest protease concentrations; also recorded: completely proteolyzed
[4]
  protection of hGH from degradation at low pH: able to protect hGH from degradation
Trypsin [5]
  protection of hGH from degradation by trypsin: able to protect hGH from degradation
[6]
  change of hGH degradation levels with VSP carrier at different pHs: no significant changes

B1: VSP1267: Giardia variant-specific surface protein expressed by clone WB-1267 (Uniprot:Q07317) (protein, listed as Giardia intestinalis)
chain: MLLIAFYLILSTFAVDCKNSGNSCEAGQCDTIGDTEICMQCNQGKVPINGICTAHSEEAVTNAGCKKNGGTNIEESDKVCGQCGNGYFLHKGGCYKIGEAPGNLICADEASNPGARTAGVCGACKDGYYKNSDAVATADSCIACEDANCATCGGAGENKCTKCIDGYFVGATGNEGGCIKCDATTGPNSYKGVAGCAKCEKPKNAGPAKCIECAADYLKTEADEQTSCVSEAVCREGKTHFPTTDSAGGNKKVCVSCGTTNNGGIENCGECTSKESAARAGTEITCTKCSSNNLSPLGDACLTDCPAGTYAVSGDSGSVCKPCHNTCAGCQTDDRETSCTACYPGYSLLYESNGATGRCVKECTGAFITNCADGQCTANVGGAKYCTQCKDGYAPIDGICTAVAAAGRDVSVCTATGGKCTACTGNYALLSGGCYNTQTLPGKSVCKAVANSNDGKCKTCANGQAPDPATNFCPLCDSTCAECSTKNDADACTKCFPGYYKTGNKCIKCTESSNNGKKIDGIPDCLSCEAPINTGPVICYVKTDGTSDDNSGNGGDSTNKSGLSTGAIAGISVAAFVVVAGLVGFLCWWFICRGKA
Trypsin [7]
  VSP survival of exposure to trypsin: able to survive exposure to trypsin

B2: VSP9B10: Giardia variant-specific surface protein of the WB isolate, clone WB-9B10 (Uniprot:Q9GS24) (protein, listed as Giardia intestinalis)
chain: MFGSFVLAGVLVQIAWAGKATERAQEAQCADNTNCAAEACNVLIGGKLYCSRCNTGFVPINGQCADKEGATDKCKDGSGGDTADQTCGQCAEQTFMYKGGCYEAAQQPGQTMCQAADAGVCTQAAQGYFVPPGADASHQSVIPCGDEEEITVKNDKKYKGVLHCTRCNAPTEAADANAKAATCTACQADRYLKTAKDQATSCVTEQECTGTEGFFAKNGGTKTCEACAETCKTCKTEAAKCTSCKDDKPYLKKDNGSDTGTCVTEAECKTGNTHYPDDTEPKTCKTCAEGTSDGCATCEKGADGAVACKTCGNQKKVQPNKKGCVENCPSNSNDKKTPGTCECVEGYVPEEAGTGCTKKPDPPAAPCNTPGCKTCSEPKTSKEVCTECEDPKALTPTGQCIYGCEHLEGYYEGTSEGGKKACKKCEVENCLLCNENGQCETCKDGYYKKETACAKCDTSCKTCANGEPNGCTSCEAKKALSYEGEGNTGTCKSECKPGTNNCEKCELTVDGTAYCSKCKDANQFPQNGVCSAAAGKAITCTTKGTGVCDKCANGLLRMNGGCYETTKFPGKSVCEEAASAGDTCQVEAPGYHLNNNDLVTCSAGCKTCTSNTVCTECMDGYAKTDNKCTKCATGCATCAGSASNCDTCSTGYYKYKNACVSCTESNSDKTITGVANCANCAPPLNNKGSVLCYLVQSGENTNKSGLSAGAIAGIAVAVIIVVGGLVGFLCWWFMCRGKA
[8]
  VSP epitopes after incubation at variable pHs: remained intact
Trypsin [7]
  VSP survival of exposure to trypsin: able to survive exposure to trypsin

B3: VSPH7: Giardia variant-specific surface protein of the GS/M isolate, clone GS-H7 (Uniprot: Q24992) (protein, listed as Giardia intestinalis)
chain: MFLLINCLIASTLAGACSTTQANCVAEKCEMVGETEICTQCKQNYVPINGVCEAAASSNTKCQKASADEASDQTCGKCLSTTFMYKGGCYDKTGNLGRIICKTEGSDAGKCGACNDEKGFFDNPDAANNVDSCISCGDATGVTIPGSSTKTYKGVAGCAKCTKPSQISENTGTKEATCTECNANLYLKAVSSPTSATSCVSAEDCKTGYFPTTDTTDSKKKCLTCSTADKGGIDGCSACELLPSTTRASTVLISCSACSTNNLSPLKNECMQDCPAGTYADSNVCKPCHTSCASCKGDNTESSCTACYPGSVLSYGTDNTKGTCIAECTGKYLENCADGQCTATIAGSKYCSKCKSGFVPVNGLCVSAETARAAPPGSTPDKTNGVCTACTEKYFLESGGCYQAEKFPGNTLCTTADAGKCTTCANGQDKDSNGSCPACPTNCASCAKDNTKTCNKCFSGYYLDTAKACKKCSETSGNIQGVENCISCLAPTSPQSSTPVTCYVKTSGGGSGDNSTGGDSGPNLSSGAIAGISVAVIVVVGGLVGFLCWWFVCRGKA
[8]
  VSP epitopes after incubation at variable pHs: remained intact
Trypsin [7]
  VSP survival of exposure to trypsin: able to survive exposure to trypsin
